B1: TRAF3IP2 (parent)
chain: APWNYHYHCPGSPDHQVPYGHDYP
B2: ANKRD9 (parent)
chain: LLEDMRASEAFHWDERGRAAAYSP

Variants of: B1
Experiment: protein stability index of a GFP-peptide fusion (GPS, HEK-293T) (PSI 1-6); higher = more stable
Settings: c terminus: a fixed tail appended
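Further: lentivirally expressed fusions sorted by FACS into six bins by GFP to DsRed ratio, PSI derived from sequencing read proportions per bin multiplied by bin number.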

Protein stability index of substitutions, site by site:
H8: W 2.26 | D 2.9 | M 1.69 | G 2.12 | S 2.44 | K 1.73 | A 2.06
Y23: Q 2.92 | A 2.85 | T 2.89 | C 1.91 | L 2.27 | I 2.3 | G 2.92 | R 2.9
D14: S 2.26 | G 2.1 | A 1.93 | W 2.32 | F 2.75 | C 2.49 | E 2.72 | T 1.78 | V 2.09 | L 2.6
H15: C 1.97 | V 2.31 | I 2.61 | T 1.91 | S 2.22 | E 2.43 | R 2.1 | W 1.46 | Q 2.13 | N 2.48
Y7: G 3.43 | A 3.15 | L 2.6 | T 2.85 | K 2.91 | D 3.79 | E 3.6
W3: D 4.04 | A 3.6 | K 3.05 | Q 3.54 | R 3.72 | T 4.03 | L 3.03 | V 2.52 | I 3.39
S12: H 2.23 | V 2.2 | E 2.37 | R 2.47 | Y 2.21 | T 2.35 | N 1.6 | D 2.49
P13: W 1.67 | S 2.14 | L 2.16 | K 1.84 | Y 1.63 | F 2.78 | R 2.33 | H 1.79 | C 1.94
P2: G 1.59 | M 2.07 | L 1.76 | N 3.37 | A 2.66 | Y 1.51 | V 2.45 | S 2.1 | K 2.04 | Q 2.35
H6: L 2.39 | I 2.42 | Y 2.02 | M 2.54 | T 2.94 | W 2.59 | E 4.43 | D 3.57 | K 2.97 | F 2.14 | R 2.9 | C 3.34 | P 3.38
Y19: D 2.75 | K 2.51 | A 2.47 | Q 3.09 | I 2.66 | E 2.8 | M 2.23
G11: N 1.87 | D 2.21 | P 1.91 | L 2.31 | M 3.15 | Y 1.37 | V 2.08
Q16: T 2.31 | F 2.19 | M 1.94 | D 2.49 | L 1.89 | H 2.97 | V 2.09 | A 2.64 | S 3.2
A1: R 2.1 | V 1.71 | Y 2.37 | I 1.71 | M 2.5 | K 2.81 | H 3.12 | S 2.18
H21: V 1.54 | M 1.67 | S 2.05 | A 2.22 | F 1.56 | C 1.6 | K 2.48 | Q 2.17 | R 2.4 | T 2.03 | I 1.74 | G 1.91 | D 2.79 | L 1.52
N4: I 2.43 | V 2.12 | E 3.39 | F 2.63 | L 2.26 | Q 3.04 | G 2 | P 2.59 | T 2.63 | H 1.97 | W 1.51
P10: R 1.29 | D 2.31 | K 2.4 | T 1.86 | Y 2.13 | Q 2.04 | A 1.69 | W 1.46 | C 1.5
Y5: G 3.96 | P 3.84 | E 4.08 | L 3.3 | K 3.14 | V 3.21 | M 3 | I 3.64
V17: C 2.45 | Y 1.81 | L 2.81 | P 2.6 | W 2.08 | H 2.71 | K 2.53 | F 1.73 | Q 2.61 | N 2.23 | T 2.39
G20: L 1.74 | F 1.52 | S 2.28 | V 2.13 | N 2.44 | I 2.74 | W 1.4 | Q 2.19 | E 2.48
D22: T 2.42 | F 1.55 | E 2.36 | I 1.16 | R 2.18 | M 1.95 | W 2.16
P18: E 2.54 | G 1.92 | C 2.97 | N 2.5 | D 2.44 | H 2.17 | K 3.59 | A 3.19
P24: H 3.02 | M 1.66 | A 2.51 | Y 1.86 | S 2.21 | R 2.73 | G 1.62 | W 1.94 | C 2.02
C9: L 1.98 | S 2.52 | E 2.55 | Y 2.16 | W 1.78 | R 2.52 | Q 2.16 | K 2.66 | N 2.17 | D 2.59

Variants of: B2
Experiment: as above
Settings: c terminus: a fixed tail appended

Protein stability index, by site and new letter:
S23: V 2.08 | D 2.09 | Y 1.74 | N 1.16 | P 1.4 | L 2.1 | M 2.68 | F 1.35 | R 1.91 | K 2.05 | E 1.85 | A 2.09 | Q 3.31 | I 2.61 | T 2.08 | G 1.68 | H 1.98
P24: F 1.23 | K 1.53 | Y 1.6 | D 1.75 | S 3.62 | Q 1.58 | T 2.34 | H 2.19 | E 2.48 | L 1.38 | A 2.1 | V 1.68 | R 1.75 | N 2.41
Y22: C 1.8 | T 4.08 | M 1.64 | R 1.81 | I 2.17 | S 2 | L 1.81 | E 2.62 | A 3.01 | Q 2.39 | D 2.2 | K 2.18 | H 1.76 | G 1.63
A19: P 2.31 | L 2.39 | I 1.03 | N 1.84 | S 2.23 | W 1.53 | C 2.26 | Y 1.28 | Q 1.22 | F 1.54 | V 1.99 | R 1.84 | D 1.36 | T 1.88 | E 1.55 | H 1.69 | K 2.27
A21: I 1.71 | R 2.23 | W 1.42 | Q 2.29 | Y 2.08 | P 1.86 | V 3.25 | G 1.33 | E 2.53 | H 1.45 | T 1.43 | M 1.96 | D 2.06 | S 1.62 | F 2.55 | C 2.15 | K 1.95 | N 2.15 | L 1.87
G17: W 1.1
R18: N 2.14 | V 2.36 | D 1.91 | M 2.34 | H 2.66 | Q 1 | G 2.12 | L 2.24 | I 1.65 | Y 1.71 | T 1.7 | A 2.65 | S 1.88 | K 1.8 | P 1.56 | E 1.96 | F 2.22 | C 1.69
A20: E 1.92 | V 1.34 | C 1.46 | Y 1.85 | R 1.1 | Q 1.48 | K 1.62 | D 2.64 | P 1.92 | T 2.36 | S 1.62 | H 2.13 | M 2.55 | F 1.81 | I 1.97 | L 2.27

Source: the supplement of paper PMC10567573
